Measured values as given in publication PMC5646246, “Unraveling the Self-Assembly of the Pseudomonas aeruginosa XcpQ Secretin Periplasmic Domain Provides New Molecular Insights into Type II Secretion System Secreton Architecture and Dynamics” (mBio, 2017).
Where “and” joins values, the source holds several entries; their conditions need not be identical. Equal entries are not always repeated.

How the values were obtained:
[1] = target: T1, XcpQ_(N012) (N0, N1 and N2 subdomains of the periplasmic N-terminal domain of the P. aeruginosa XcpQ secretin) (Pseudomonas aeruginosa, UniProt P35818); assay: SEC; vHH04 mixed with the preformed XcpQ_(N012) multimer (dodecamer); shift of the H peak; conditions: both partners purified
T1 construct: XcpQ secretin of the Xcp type II secretion system, Pseudomonas aeruginosa; subdomains N0, N1 and N2; 26 kDa; the whole N domain covers residues 51 to 365; Found in solution as dimers (L) and dodecamers (H); also called matured XcpQ_(N012); untagged XcpQ_(N012)

[2] = target: T2, XcpQ_(N012) with biotin tag (fixed on streptavidin sensors) (Pseudomonas aeruginosa) (UniProt P35818); assay: BLI; XcpQ_(N012) fixed on streptavidin sensors by a biotin tag; soluble vHH04 from 0.156 to 10 µM
T2 sequence (chain, biotin (biotin tag, site not stated)): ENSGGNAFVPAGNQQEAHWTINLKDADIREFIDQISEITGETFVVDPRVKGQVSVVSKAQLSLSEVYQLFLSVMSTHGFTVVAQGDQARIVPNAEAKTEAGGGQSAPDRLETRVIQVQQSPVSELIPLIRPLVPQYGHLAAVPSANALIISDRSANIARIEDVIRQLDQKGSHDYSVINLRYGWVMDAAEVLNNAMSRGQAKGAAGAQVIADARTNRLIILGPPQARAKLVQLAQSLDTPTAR

[3] = target: the molecule itself; assay: negative-staining single-particle electron microscopy; SEC fractions diluted to 0.02-0.05 mg/ml, uranyl acetate stain, EMAN2 2D classes; 3D reconstruction with C6 symmetry imposed for the Trx fusions
[4] = target: the molecule itself; assay: SEC + cross-linking; XcpQ_(N012)-T54C-Q86C without H2O2 treatment, HiLoad Superdex 200 16/600; oligomeric fractions on SDS-PAGE under reducing and nonreducing conditions
[5] = target: T3, chitin binding protein D (CbpD), Xcp T2SS effector (Pseudomonas aeruginosa, UniProt Q9I589 26-389); assay: BLI; sensor coupled to CbpD or to XcpPp; XcpQ_(N012) alone or the XcpQ_(N012)-vHH04 complex in solution; conditions: both partners purified
T3 construct: Coupled to the BLi sensor; source: purified
T3 sequence: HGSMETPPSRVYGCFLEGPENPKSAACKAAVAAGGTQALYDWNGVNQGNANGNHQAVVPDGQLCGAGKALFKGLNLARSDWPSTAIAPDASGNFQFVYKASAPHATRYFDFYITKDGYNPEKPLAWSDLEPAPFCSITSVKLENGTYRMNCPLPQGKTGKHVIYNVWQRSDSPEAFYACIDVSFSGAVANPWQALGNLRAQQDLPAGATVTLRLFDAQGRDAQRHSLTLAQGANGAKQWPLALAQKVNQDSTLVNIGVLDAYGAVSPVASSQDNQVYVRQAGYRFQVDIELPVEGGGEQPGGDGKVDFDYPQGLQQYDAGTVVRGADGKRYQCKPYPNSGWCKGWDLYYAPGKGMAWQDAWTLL

[6] = target: the molecule itself; assay: SEC; HiLoad 16/600 Superdex 200 column calibrated with standard proteins; purified protein alone
[7] = target: the molecule itself; assay: cross-linking; in vivo disulfide cross-linking of V5-tagged full-length XcpQ variants in P. aeruginosa PAO1 ΔxcpQ; membranes with N-ethylmaleimide, SDS-PAGE denaturing, nonreducing or reducing, anti-V5 blot

B1: vHH04 nanobody directed against XcpQN (VHH)
VHH: QVQLVESGGGSVQAGGSLRLSCAASGNTDSSYYMGWFRQGPGKEREGVASIYIRAGIPYYTDSVKGRFTISQDNAKNTIYLQMNSLKPEDTAMYFCAGSVRTTIQPFKGNYYNYWGRGTQVTVSS
notes: camel nanobody; About 16 kDa; For the in vivo interference the histidine-tagged vHH04 was produced in the periplasm of P. aeruginosa PAO1 (IPTG-inducible); also called histidine-tagged vHH04; His-tagged vHH04; source: E. coli WK6, purified
stoichiometry N [1]: 6 vHH04 per XcpQ_(N012) dodecamer | Kd [2]: 5.6 µM

B2: Trx-XcpQ_(N012)-S210C (domain or fragment)
chain: ENSGGNAFVPAGNQQEAHWTINLKDADIREFIDQISEITGETFVVDPRVKGQVSVVSKAQLSLSEVYQLFLSVMSTHGFTVVAQGDQARIVPNAEAKTEAGGGQSAPDRLETRVIQVQQSPVSELIPLIRPLVPQYGHLAAVPSANALIISDRSANIARIEDVIRQLDQKGSHDYCVINLRYGWVMDAAEVLNNAMSRGQAKGAAGAQVIADARTNRLIILGPPQARAKLVQLAQSLDTPTAR
notes: XcpQ secretin, Pseudomonas aeruginosa; subdomains N0, N1 and N2; Uncleaved thioredoxin fusion of m3; source: E. coli BL21(DE3)pLysS, purified; copies: 12
binding result [3]: binds

B3: XcpQ_(N012)-T54C-Q86C (domain or fragment)
chain: ENSGGNAFVPAGNQQEAHWCINLKDADIREFIDQISEITGETFVVDPRVKGCVSVVSKAQLSLSEVYQLFLSVMSTHGFTVVAQGDQARIVPNAEAKTEAGGGQSAPDRLETRVIQVQQSPVSELIPLIRPLVPQYGHLAAVPSANALIISDRSANIARIEDVIRQLDQKGSHDYSVINLRYGWVMDAAEVLNNAMSRGQAKGAAGAQVIADARTNRLIILGPPQARAKLVQLAQSLDTPTAR
modifications: disulfide bridges between T54C and Q86C of neighbouring chains
notes: XcpQ secretin, Pseudomonas aeruginosa; subdomains N0, N1 and N2; source: E. coli BL21(DE3)pLysS, purified (same protocol as XcpQ_(N012), SEC without H2O2 treatment)
stoichiometry N [4]: 12 and 4 and 6

B4: XcpQ_(N012) (N0, N1 and N2 subdomains of the periplasmic N-terminal domain of the P. aeruginosa XcpQ secretin) (domain or fragment, Pseudomonas aeruginosa)
chain: ENSGGNAFVPAGNQQEAHWTINLKDADIREFIDQISEITGETFVVDPRVKGQVSVVSKAQLSLSEVYQLFLSVMSTHGFTVVAQGDQARIVPNAEAKTEAGGGQSAPDRLETRVIQVQQSPVSELIPLIRPLVPQYGHLAAVPSANALIISDRSANIARIEDVIRQLDQKGSHDYSVINLRYGWVMDAAEVLNNAMSRGQAKGAAGAQVIADARTNRLIILGPPQARAKLVQLAQSLDTPTAR
notes: XcpQ secretin of the Xcp type II secretion system, Pseudomonas aeruginosa; subdomains N0, N1 and N2; 26 kDa; the whole N domain covers residues 51 to 365; Found in solution as dimers (L) and dodecamers (H); also called matured XcpQ_(N012); untagged XcpQ_(N012)
binding result [5]: binds

B5: Trx-XcpQ_(N012) fusion protein (domain or fragment)
chain: ENSGGNAFVPAGNQQEAHWTINLKDADIREFIDQISEITGETFVVDPRVKGQVSVVSKAQLSLSEVYQLFLSVMSTHGFTVVAQGDQARIVPNAEAKTEAGGGQSAPDRLETRVIQVQQSPVSELIPLIRPLVPQYGHLAAVPSANALIISDRSANIARIEDVIRQLDQKGSHDYSVINLRYGWVMDAAEVLNNAMSRGQAKGAAGAQVIADARTNRLIILGPPQARAKLVQLAQSLDTPTAR
notes: XcpQ secretin, Pseudomonas aeruginosa; subdomains N0, N1 and N2; Uncleaved thioredoxin fusion of m1; also called Trx-Q_(N012); source: E. coli BL21(DE3)pLysS, purified (SEC); copies: 12
stoichiometry N [6]: 12

B6: full-length XcpQ-S210C (natural protein)
chain: ENSGGNAFVPAGNQQEAHWTINLKDADIREFIDQISEITGETFVVDPRVKGQVSVVSKAQLSLSEVYQLFLSVMSTHGFTVVAQGDQARIVPNAEAKTEAGGGQSAPDRLETRVIQVQQSPVSELIPLIRPLVPQYGHLAAVPSANALIISDRSANIARIEDVIRQLDQKGSHDYCVINLRYGWVMDAAEVLNNAMSRGQAKGAAGAQVIADARTNRLIILGPPQARAKLVQLAQSLDTPTARSANTRVIRLRHNDAKTLAETLGQISEGMKNNGGQGGEQTGGGRPSNILIRADESTNALVLLADPDTVNALEDIVRQLDVPRAQVLVEAAIVEISGDIQDAVGVQWAINKGGMGGTKTNFANTGLSIGTLLQSLESNKAPESIPDGAIVGIGSSSFGALVTALSANTKSNLLSTPSLLTLDNQKAEILVGQNVPFQTGSYTTNSEGSSNPFTTVERKDIGVSLKVTPHINDGAALRLEIEQEISALLPNAQQRNNTDLITSKRSIKSTILAENGQVIVIGGLIQDDVSQAESKVPLLGDIPLLGRLFRSTKDTHTKRNLMVFLRPTVVRDSAGLAALSGKKYSDIRVIDGTRGPEGRPSILPTNANQLFDGQAVDLRELMTE
modifications: disulfide bridge between S210C of two chains
notes: XcpQ secretin, Pseudomonas aeruginosa, full length; Made with its own signal peptide and exported to the envelope; source: P. aeruginosa PAO1 ΔxcpQ, pJN vector, arabinose-induced, in membrane samples; not shown: V5, C-terminal, kept
stoichiometry N [7]: 2

B7: full-length XcpQ-T54C-Q86C (natural protein)
chain: ENSGGNAFVPAGNQQEAHWCINLKDADIREFIDQISEITGETFVVDPRVKGCVSVVSKAQLSLSEVYQLFLSVMSTHGFTVVAQGDQARIVPNAEAKTEAGGGQSAPDRLETRVIQVQQSPVSELIPLIRPLVPQYGHLAAVPSANALIISDRSANIARIEDVIRQLDQKGSHDYSVINLRYGWVMDAAEVLNNAMSRGQAKGAAGAQVIADARTNRLIILGPPQARAKLVQLAQSLDTPTARSANTRVIRLRHNDAKTLAETLGQISEGMKNNGGQGGEQTGGGRPSNILIRADESTNALVLLADPDTVNALEDIVRQLDVPRAQVLVEAAIVEISGDIQDAVGVQWAINKGGMGGTKTNFANTGLSIGTLLQSLESNKAPESIPDGAIVGIGSSSFGALVTALSANTKSNLLSTPSLLTLDNQKAEILVGQNVPFQTGSYTTNSEGSSNPFTTVERKDIGVSLKVTPHINDGAALRLEIEQEISALLPNAQQRNNTDLITSKRSIKSTILAENGQVIVIGGLIQDDVSQAESKVPLLGDIPLLGRLFRSTKDTHTKRNLMVFLRPTVVRDSAGLAALSGKKYSDIRVIDGTRGPEGRPSILPTNANQLFDGQAVDLRELMTE
modifications: disulfide bridge between T54C and Q86C of two chains
notes: as for B6
stoichiometry N [7]: 2
